Assays:
Number and Brightness = details: other: Number and Brightness (N&B) analysis
[1] = target: GFP-FR (Folate Receptor), GPI-anchored, in MDCK cells; assay: Number and Brightness
GFP-FR, in CHO cells = assay: Number and Brightness

In the case of “GFP-FR (Folate Receptor), GPI-anchored, in MDCK cells”, the “percent of GFP-FR in aggregates of three-four molecules” value (Number and Brightness) is reported as “about 30-35% of GFP-FR” and the average B value (brightness) [1] is reported as 1.29.

In the case of GFP-FR, in CHO cells, the average B value (brightness) (GFP-FR, in CHO cells) is reported as 1.36 and the percent of GFP-FR in clusters of 3 to 4 or 5 molecules (GFP-FR, in CHO cells) is reported as 50%.

Source: publication PMC4027978
